Paper PMC4739419, “Mutations in the nucleotide binding and hydrolysis domains of Helicobacter pylori MutS2 lead to altered biochemical activities and inactivation of its in vivo function” (BMC Microbiology, 2016)

Key:
[1] = test system: Nc1ncnc2c1ncn2[C@@H]1O[C@H](COP(=O)(O)OP(=O)(O)OP(=O)(O)O)[C@@H](O)[C@H]1O; assay: purified protein, by the assay type; settings: pH 8.0; 37.0 °C
HpMutS2 = molecular target: T1, HpMutS2 (Helicobacter pylori, UniProt O25338); format: biochemical; settings: for support of HpMutS2 ATPase activity by metal ion: metal ion 5 mM, ATP 100 μM, HpMutS2 45 nM, 37 °C, 30 min
T1 construct: (A) HpMutS2 (1-762): Mol. wt; (kDa): 87.8; His6 (C); made in house; host or cells: E. coli Rosetta (DE3) pLysS
Procedure: To delineate the characteristics of the ATPase activity of HpMutS2, we initially determined the metal ion requirement for ATP hydrolysis by HpMutS2. Purified HpMutS2 was incubated with excess of cold ATP (100 μM) with or without metal ions (5 mM each), and ATP hydrolysis monitored by thin layer chromatography using radiolabeled ATP [γ-^32P] as tracer.
Additional files 1: Figure S1. Multiple sequence alignment of MutS2 proteins from different H. pylori strains. Multiple sequence alignment of MutS2 proteins from different bacteria was carried out using Clustal Omega (http://www.ebi.ac.uk/Tools/msa/clustalo/). The protein sequences were obtained from NCBI protein database. The conserved nucleotide binding Walker-A motif and nucleotde hydrolysis Walker-B motifs are framed. The arrow indicates H. pylori MutS2 protein sequence. Figure S2. ATPase activity of HpMutS2 and variants. (A) Divalent metal ion requirement for ATPase activity of HpMutS2. Mentioned divalent metal ions (5 mM each) were incubated separately with cold ATP (100 μM) with (+) or without (−) HpMutS2 (45 nM). After incubation at 37 °C for 30 min the reactions were stopped by EDTA (50 mM) and the products were separated by TLC. ATP [γ-^32P] was used as tracer to monitor the product formation. (B) Time dependent hydrolysis of ATP by HpMutS2. A mixture of cold ATP (1 mM) and ATP [γ-^32P] was incubated in presence of HpMutS2 (45 nM) at 37 °C . The reaction aliquots were removed at indicated time points. The reactions were stopped by adding EDTA (50 mM) and products were separated by TLC. […] (C) Effect of HpSmr domain deletion on ATPase activity of HpMutS2. Increasing concentrations of proteins were incubated with a mixture of cold ATP (1 mM) and ATP [γ-^32P] at 37 °C for 30 min. The reactions were processed as described in (A). […] Figure S3. Limited proteolysis. Proteins (4 μM) were incubated with chymotrypsin (1.25 ng) for 30 min at 37 °C. The heat denaturation of proteins was performed by heating them at 95 °C for 10 min. […] Reactions were stopped by adding 1X protease inhibitor cocktail (Sigma), heat denatured and the products were separated on SDS-PAGE (10 %). Lane M: Molecular weight marker. Protein bands were detected by staining with Coomassie Brilliant Blue. […]. […] (A-E) Effect of nucleotides on DNA binding properties of HpMutS2. Electrophoretic mobility shift assays were performed with indicated DNA substrates (0.16 nM) without and with nucleotides (1 mM). After incubation for 30 min on ice, the reaction mixture was electrophoresed on polyacrylamide gel (8 %). Schematic representation of DNA substrates used are shown at the left side of autoradiographs. Figure S5. Chase experiments. A preformed ssDNA-HpMutS2 complex was chased with increasing concentrations of (A) ATP (0.25–5 mM) and (B) ssDNA (7.5–500 nM). (C) A preformed SC pUC19 DNA-HpMutS2 complex was chased with increasing concentrations of ATP (0.25–5 mM) . The reactions were performed at 37 °C and the reaction mixture was electrophoresed on PAGE (8 %) in case of (A and B) or an agarose gel (0.8 %) in case of (C). The amount of displaced DNA was estimated by assuming the DNA without protein as 100 %. Figure S6. Western blot. Equal numbers of exponentially growing H. pylori cells were lysed in Laemmli buffer (1X) by boiling at 95 °C for 5 min. The proteins were separated by SDS-PAGE (10 %). The HpMutS2 and mutants were detected by probing with polyclonal antibodies against HpMutS2. Table S1. Sequence of oligonucleotides used to prepare DNA substrates. Table S2. DNA substrates used in this study (* represents position of ^32P). (PDF 636 kb)

[2] = molecular target: the molecule itself; assay: SEC; Superose-6 HR 10/30, buffer B (50 mM Tris pH 8.0, 100 mM NaCl), 0.3 ml/min, approximately 150 ug protein injected; mass from a plot of Ve/Vo versus log of molecular mass of standards
[3] = substrate: Nc1ncnc2c1ncn2[C@@H]1O[C@H](COP(=O)(O)OP(=O)(O)OP(=O)(O)O)[C@@H](O)[C@H]1O; assay: ATPase assay by thin layer chromatography with [γ-32P]ATP as tracer and cold ATP varied, 50 mM Tris pH 8.0, 50 mM NaCl, 1 mM DTT, 5 mM MgCl2, 37 °C, no DNA, Michaelis-Menten non-linear regression.; format: biochemical

HpMutS2-E413A (Helicobacter pylori 26695; E413A)
Km [1]: 373.2 ± 188.6 µM | Vmax [1]: 0.19 µM/min | kcat [1]: 0.0703 ± 0.011 s⁻¹

HpMutS2-G338R (Helicobacter pylori 26695; G338R)
Km [1]: 939.3 ± 489.2 µM | Vmax [1]: 0.64 µM/min | kcat [1]: 0.237 ± 0.0555 s⁻¹

[Mg+2] [Mg^2+]
support of HpMutS2 ATPase activity by metal ion (HpMutS2): supported a strong ATPase activity

[Co+2] [Co^2+]
support of HpMutS2 ATPase activity by metal ion (HpMutS2): allowed the ATPase activity to various extents

[Mn+2] [Mn^2+]
support of HpMutS2 ATPase activity by metal ion (HpMutS2): allowed the ATPase activity to various extents

[Ca+2] [Ca^2+]
support of HpMutS2 ATPase activity by metal ion (HpMutS2): allowed the ATPase activity to various extents

[Cu+2] [Cu^2+]
support of HpMutS2 ATPase activity by metal ion (HpMutS2): allowed the ATPase activity to various extents

[Ni+2] [Ni^2+]
support of HpMutS2 ATPase activity by metal ion (HpMutS2): did not significantly support the ATPase activity

O=C(O)CN(CCN(CC(=O)O)CC(=O)O)CC(=O)O [EDTA]
effect on Mg2+ dependent ATPase activity (HpMutS2): inhibited

[Cd+2] [Cd ^2+]
support of HpMutS2 ATPase activity by metal ion (HpMutS2): allowed the ATPase activity to various extents

[Zn+2] [Zn^2+]
support of HpMutS2 ATPase activity by metal ion (HpMutS2): allowed the ATPase activity to various extents

B1: Helicobacter pylori MutS2 (enzyme, Helicobacter pylori strain 26695, UniProt O25338 1-762, looked up)
chain: MSDAPKRSLNPTLMMNNNNTPPKPLEESLDLKEFIALFKTFFAKERDTIALENDLKQTFTYLNEVDAIGLPTPKSVKESDLIIIKLTKLGTLHLDEIFEIVKRLHYIVVLQNAFKTFTHLKFHERLNAIVLPPFFNDLIALFDDEGKIKQGANATLDALNESLNRLKKESVKIIHHYARSKELAPYLVDTQSHLKHGYECLLLKSGFSGAIKGVVLERSANGYFYLLPESAQKIAQKIAQIGNEIDCCIVEMCQTLSHSLQKHLLFLKFLFKEFDFLDSLQARLNFAKAYNLEFVMPSFTQKKMILENFSHPILKEPKPLNLKFEKSMLAVTGVNAGGKTMLLKSLLSAAFLSKHLIPMKINAHHSIIPYFKEIHAIINDPQNSANNISTFAGRMKQFSALLSKENMLLGVDEIELGTDADEASSLYKTLLEKLLKQNNQIIITTHHKRLSVLMAENKEVELLAALYDEEKERPTYTFLKGVIGKSYAFETALRYGVPHFLIEKAKTFYGEDKEKLNVLIENSSALERELKQKNEHLENALKEQEYLKNAWLLEMEKQKEIFHNKKLELEKSYQQALNILKSEVASKDTSSMHKEIHKASEILSKHKTNQEIPQIITNFQANEKARYKNESVLIVQILDKGYYWIETELGMRLKAHGSLLKKIQKPPKNKFKPPKTTIPKPKEASLRLDLRGQRSEEALDLLDAFLNDALLGGFEEVLICHGKGSGILEKFVKEFLKNHPKVVSFSDAPINLGGSGVKIVKL
notes: MutS2 of Helicobacter pylori strain 26695, full length, cloned in pET28b; Tetramer by gel filtration; a small fraction elutes near the void volume as multimers; also called HpMutS2; wild-type HpMutS2
stoichiometry N [2]: 4 | Km [3]: 412.1 ± 83.43 µM | Vmax [3]: 1.88 µM/min | kcat [3]: 0.696 ± 0.048 s⁻¹
